The text below walks through data of paper PMC5805389 (Biochemistry, 2016).

The data set deals with the molecule itself. The data set can be described thus: crystal structure.

Broadly, the stoichiometry N is a count of units in the complex or per binding partner.

B1: human DJ-1, wild type (natural protein)
chain: GSHMASKRALVILAKGAEEMETVIPVDVMRRAGIKVTVAGLAGKDPVQCSRDVVICPDASLEDAKKEGPYDVVVLPGGNLGAQNLSESAAVKEILKEQENRKGLIAAICAGPTALLAHEIGFGSKVTTHPLAKDKMMNGGHYTYSENRVEKDGLILTSRGPGTSFEFALAIVEALNGKEVAAQVKAPLVLKD
With B1, the “stoichiometry N” value stood at 2.

B2: human DJ-1 D24N (natural protein)
chain: GSHMASKRALVILAKGAEEMETVIPVNVMRRAGIKVTVAGLAGKDPVQCSRDVVICPDASLEDAKKEGPYDVVVLPGGNLGAQNLSESAAVKEILKEQENRKGLIAAICAGPTALLAHEIGFGSKVTTHPLAKDKMMNGGHYTYSENRVEKDGLILTSRGPGTSFEFALAIVEALNGKEVAAQVKAPLVLKD
In the case of B2, the binding result was “binds”.
